In PMC6536497 one finds percent decrease in pull down of TRAF6 relative to NS2B/3pro WT (densitometry) data, which are given here for 1 substance.

In test [1] the target is LGTV NS2B/3pro_D19A_E117A (Langat virus) (UniProt P29837). Description: pull-down.
Test [2] concerns the target LGTV NS2B/3pro_E117A (Langat virus) (UniProt P29837). Description: pull-down.

On to “GFP-tagged TRAF6 (TRAF6-GFP) (from UniProt Q9Y4K3 1-522) (natural protein)”, for which the percent decrease in pull down of TRAF6 relative to NS2B/3pro WT (densitometry) in test [1] was determined as 58.6%; in test [2], 56.1%.
